In patent US20080311122A1, “Antagonists of Hmgb1 and/or Rage and Methods of Use Thereof” (Medimmune, LLC, priority 2005, published 2008):
“Also recorded” adds a separate entry of the source.

Legend:
[1] = Differential scanning calorimetry; type: physicochemical; parameters: unit: °C; conditions: in °C (unit assumed)
Experimental: Differential Scanning Calorimetry: Thermal melting temperatures (Tm) were measured with a VP-DSC (MicroCal, LLC) using a scan rate of 1.0° C./min and a temperature range of 25-120° C. A filter period of 8 seconds was used along with a 5 minute pre-scan thermostating. Samples were prepared by dialysis into 25 mM Histidine-HCl, pH 6 using Pierce dialysis cups (3.5 kD). Average Mab concentrations were 50 μg/mL as determined by A280. Melting temperatures were determined following manufacturer procedures using Origin software supplied with the system. Briefly, multiple baselines were run with buffer in both the sample and reference cell to establish thermal equilibrium. After the baseline was subtracted from the sample thermogram, the data were concentration normalized and fitted using the deconvolution function.

[2] = test system: HMG1 (recombinant, native; immobilized, soluble); test: Direct and sandwich (capture) ELISA comparing forms of HMG1; type: binding; conditions: for binding to immobilized versus soluble HMG1: two ELISA formats, rHMG1; for binding to recombinant HMG1 versus native HMG1: capture ELISA
Experimental: Direct ELISA (immobilized HMG1): Individual wells of a 96-well immunoplate (EIA/RIA plate, High binding, Costar) were coated with HMGB-1 at 5 μg/ml in PBS at 4° C. overnight. The plate was then blocked with 4% milk powder dissolved in PBS at 37° C. for 1 hour. The blocking solution was removed and replaced with human anti-HMG1 antibodies at various concentrations (see FIG. 4A). The plate was then washed (ELX-405 Plate washer, BIO-TEK) and secondary antibody (anti-human IgG-HRP, PIERCE) was added at a final concentration of 1:125,000 at 37° C. for 1 hour. HRP activity was detected with Sureblue HRP substrate (KPL). Plates were read at 450 nm using a Kinetic Microplate Reader (Molecular Devices).
Sandwich ELISA (soluble HMG1): Immunoplates (EIA/RIA plate, High binding, Costar) were coated with anti human IgG Fc at 10 μg/ml in PBS (pH 7.2) and incubated at 4° C. overnight. The coating reagent was removed and the plates were rinsed briefly with PBS. The plates were then blocked with 4% milk for 1 hour at 37° C. and rinsed with PBS. The anti-HMG1 antibodies were diluted in 4% milk. For serial dilutions, the antibodies were used at a starting concentration of 20 μg/ml. The diluted anti-HMG1 antibodies were then added into plate and incubated for 1 hr at 37° C. The plate was then washed 10 times with PBST (PBS/0.1% tween 20) and incubate with antigen (HMGB1, 2 μg/ml; or 0.7 μg/ml for native HMGB1) in 4% milk and incubated at 37° C. for 1 h. The plate was then wash 10 times and incubated with mouse anti-HMGB1, 1 μg/ml in 4% milk at 37° C. for 1 h. The plate was washed 10 times and incubated with anti-mouse IgG-HRP at 1:1000 at 37° C. for 1 h. The plate was then washed and developed. HRP activity was detected with Sureblue HRP substrate (KPL). Plates were read at 450 nm using a Kinetic Microplate Reader (Molecular Devices).

[3] = target: T1, recombinant HMG1 binding to RAGE-Fc (Homo sapiens, UniProt P09429); test: HMG1 binding to RAGE-Ig by ELISA; conditions: at the concentrations tested
T1 construct: made in house; host or cells: E. coli (HMG1)
T1 sequence (P09429 1-215): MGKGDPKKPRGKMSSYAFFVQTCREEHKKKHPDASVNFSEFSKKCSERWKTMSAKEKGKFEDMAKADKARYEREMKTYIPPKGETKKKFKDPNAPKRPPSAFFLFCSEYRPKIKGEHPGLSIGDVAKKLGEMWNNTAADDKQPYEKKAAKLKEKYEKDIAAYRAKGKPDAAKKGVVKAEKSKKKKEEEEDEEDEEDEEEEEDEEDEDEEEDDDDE
Experimental: HMG1 binding to RAGE-Ig by ELISA: 50 μl/well of RAGE-Fc fusion protein at 5 μg/ml in PBS was added to each well of an ELISA plate and incubated overnight at 4° C. The plate was then blocked with 200 μl of 5% milk at 37° C. for 1 hr and washed 3× with PBS/Tween. 50 μl/well of diluted HMGB1 solution. For dose curves, HMGB1 concentrations started at 4 ug/ml in PBS. For antibody blocking the HMGB1 was preincubated in another plate with human anti-HMG1 antibodies or buffer, then transferred to the RAGE-coated plate. The plates were then incubated at room temperature for 2 hours and washed 3×. To detect any HMG1 bound to the immobilized RAGE-Fc a mixture of biotinylated mouse anti-HMG1 mAbs (10D4, 4H11, 3E10 and 5C12) each at 1 ug/ml, total Ab: 4 ug/ml, were added to each well and the plate was incubated for 1 hour at room temperature. The plate was then washed and Strepavidin-HPR was added to each well and incubated 15 min. The plate was then washed 3× and blotted dry. 100 μl of TMB developing agent was added and the plate read at 650 nm. Values were calculated as percent of inhibition with HMG1 alone equal to 0% inhibition. The data in FIG. 9 and summarized in Table 1 represent the average of two separate experiments.

HMG2 = target: T2, HMG2 (Bos taurus, UniProt P40673); test: Binding to HMG1 vs. HMG2 ELISA; parameters: species or system calf; conditions: immobilized antigen
T2 construct: from tissue; host or cells: calf thymus (as read from the sentence)
T2 sequence (P40673 1-209): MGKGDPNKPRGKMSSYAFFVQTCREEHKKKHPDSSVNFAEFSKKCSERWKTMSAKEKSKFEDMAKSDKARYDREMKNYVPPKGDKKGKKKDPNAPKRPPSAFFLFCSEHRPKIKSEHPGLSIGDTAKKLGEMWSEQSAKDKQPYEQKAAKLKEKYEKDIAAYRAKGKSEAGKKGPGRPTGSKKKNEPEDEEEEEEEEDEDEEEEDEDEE
Experimental: Binding to HMG1 vs. HMG2: Ultra high-binding ELISA plates (ThermoLab systems, #3855) were coated with either 5 ug/mL of Calf thymus HMGB1 or HMBG2 diluted in 10 mM Phosphate buffered saline (PBS), pH 7.2 and incubate overnight at 4 degrees. The plates were washed twice with Ca and Mg free PBS and 100 microliters of anti-HMGB1 antibody diluted in 10 mM PBS, pH 7.2+1% bovine serum albumin (BSA) to a final concentration of 10 ug/mL was added to each well and the plates were incubated 1 hour at room temperature. The wells were washed three times with 100 μl of PBS, pH 7.2. HRP labeled goat-anti-human IgG Kappa-chain (KPL, #14-10-10) and goat-anti-human IgG Lambda-chain (KPL, #14-10-11) were diluted in 10 mM PBS+1% BSA 1:1000 and 100 μl were added to each well and incubated for 1 hour at room temperature. The wells were then washed three times with 100 μl of PBS, pH 7.2. OPD substrate (Pierce chemical company, #34006) was prepared following the manufacturers instructions and 100 μl of prepared substrate was added to each well and the plates incubated at room temperature in the dark for 20-30 minutes. The reaction was stopped with the addition of 100 μl of 2M H2SO4, and the plates read on a plate reader at a wavelength of 490 nm.

B1: S12: human anti-HMG1 antibody; VL/VH aa SEQ ID NO: 62/64 (antibody, listed as Homo sapiens, V domains shown)
VH: EVQLLESGGGLVQPGGSLRLSCAASGFTFSKYIMHWVRQAPGKGLEWVSGIVPSGGLTEYADSVKGRFTISRDNSKNTLYLQMNSLRAEDTATYYCAKEIFGQFDYWGQGTLVTVSS
VL: AQSALTQPPSVSAAPRQRVTISCSGSTSNIGNNAVTWYQYFPGKAPKLLIYSDNQRPSGVPDRFSGSKSGTSASLAITGLQAEDEADYYCQSYDRGLSVVFGGGTKLTVL
[1]
  Tm: 66.9
[2]
  binding to immobilized versus soluble HMG1: bound slightly better to immobilized rHMG1
[3]
  block of recombinant HMG1 binding to RAGE: do not at the concentrations tested
HMG2
  relative binding to HMG1 and HMG2: some binding to both HMG1 and HMG2

B2: G20: human anti-HMG1 antibody; VL/VH aa SEQ ID NO: 46/48 (antibody, listed as Homo sapiens, V domains shown)
VH: EVQLLESGGGLVQPGGSLRLSCAASGFTFSWYDMFWVRQAPGKGLEWVSWISPSGGYTKYADSVKGRFTISRDNSKNTLYLQMNSLRAEDTAMYYCARSGLDYYDSSGYLDAFDIWGQGTMVTVSS
VL: AQDIQMTQSPSSVSASVGDRVTITCRASQDVSIWLAWYQQKPGKAPKLLIFGASRLQSGVPSRFSGSRSGADFTLTIDSVQPEDFASYYCQQADSFPLTFGGGTKVEIK
[1]
  Tm: 71.2
[2]
  binding to immobilized versus soluble HMG1: bind better to soluble rHMG1
[3]
  block of recombinant HMG1 binding to RAGE: do not at the concentrations tested
HMG2
  relative binding to HMG1 and HMG2: specific for HMG1

B3: S10: human anti-HMG1 antibody; VL/VH aa SEQ ID NO: 58/60 (antibody, listed as Homo sapiens, V domains shown)
VH: EVQLLESGGGLVQPGGSLRLSCAASGFTFSWYDMWWVRQAPGKGLEWVSWIVPSGGITAYADSVKGRFTISRDNSKNTLYLQMNSLRAEDTATYYCARGNYGPSPFDYWGQGTLVTVSS
VL: AQDIQMTQSPGTLSLSPGERATLSCRATQSVRKNFLAWYQQKPGQAPRLLIYDASSRATGIPDRFSGSGSGTDFTLTISRLEPEDFAVYYCQQYGNSPIIFGQGTRLEIK
[1]
  Tm: 75.3
[2]
  binding to recombinant HMG1 versus native HMG1: better binding to rHMG1; also recorded: discriminating between recombinant and the various native forms; also recorded: bind better to recombinant HMG1 than to native nuclear HMG1
  binding to immobilized versus soluble HMG1: bound slightly better to immobilized rHMG1
[3]
  block of recombinant HMG1 binding to RAGE: significant ability to block the binding of HMG1 to RAGE
HMG2
  relative binding to HMG1 and HMG2: specific for HMG1

B4: S16: human anti-HMG1 antibody, ATCC PTA-6259; VL/VH aa SEQ ID NO: 13/15 (antibody, listed as Homo sapiens, V domains shown)
VH: EVQLLESGGGLVQPGGSLRLSCAASGFTFSWYSMLWVRQAPGKGLEWVSYISPSGGFTNYADSVKGRFTISRDNSKNTLYLQMNSLRAEDTAVYYCARWDYNSGWYYDHWGQGTLVTVSS
VL: AQDIQMTQSPDTLSLSPGERATLSCRASQSVNSRNLAWYQQKPGQAPRLLIYGASTRATGIPDRFSGSVSGTEFTLTISSLQPDDFATYYCQQYNSYFTFGQGTKLEIK
[1]
  Tm: 71.4
[2]
  binding to recombinant HMG1 versus native HMG1: binds both recombinant and native HMG1; also recorded: binding all forms of HMG1; also recorded: bind both forms of HMG1
  binding to immobilized versus soluble HMG1: bound slightly better to immobilized rHMG1
[3]
  block of recombinant HMG1 binding to RAGE: significant ability to block the binding of HMG1 to RAGE
HMG2
  relative binding to HMG1 and HMG2: some binding to both HMG1 and HMG2

B5: G9: human anti-HMG1 antibody; VL/VH aa SEQ ID NO: 34/36 (antibody, listed as Homo sapiens, V domains shown)
VH: EVQLLESGGGLVQPGGSLRLSCAASGFTFSSYDMFWVRQAPGKGLEWVSRISPSGGYTYYADSVKGRFTISRDNSKNTLYLQMNSLRAEDTAVYYCARLRYFDSRGYAFDIWGQGTMVTVSS
VL: AQDIQMTQSPGTLSLSPGERATLSCRASQSVRSSYLAWYQQKPGQAPRLLIYGASTRATGIPDRFSGSGSGTDFTLTISRLEPEDFAVYYCQQYGTSRWTFGQGTKVEIK
[1]
  Tm: 77.9
[2]
  binding to immobilized versus soluble HMG1: little difference in binding to immobilized or soluble HMG1
[3]
  block of recombinant HMG1 binding to RAGE: did not inhibit RAGE binding; also recorded: do not at the concentrations tested
HMG2
  relative binding to HMG1 and HMG2: specific for HMG1

B6: E11: human anti-HMG1 antibody, recognizes HMG1 A-Box; VL/VH aa SEQ ID NO: 24/26 (antibody, listed as Homo sapiens, V domains shown)
VH: EVQLLESGGGLVQPGGSLRLSCAASGFTFSRYQMNWVRQAPGKGLEWVSSISPSGGHTHYADSVKGRFTISRDNSKNTLYLQMNSLRAEDTAVYYCAKDGRQGKISTVDHWGQGTLVTVSS
VL: AQDIQMTQSPGTLSLSPGERATLSCRASQSVRSNFLAWYQQKPGQAPRLLIYGASRRASGIPDRFSGSGFGADFTLSISRLEPEDFAVYYCQQYGSSPNTFGQGSRVEIK
[1]
  Tm: 66.3
[2]
  binding to immobilized versus soluble HMG1: bind better to soluble rHMG1; also recorded: higher affinity for soluble HMG1
HMG2
  relative binding to HMG1 and HMG2: some binding to HMG2; also recorded: bind better to HMG2 than to HMG1; also recorded: higher binding affinity for HMG2
